Results as given in patent US20250313615A1 (ANNEXON, published 2025).

Target: T1, complement factor C1q (Homo sapiens, UniProt P02745 23-245; P02746 28-253; P02747 29-245)
T1 construct: also called soluble C1q
Experiment: in vivo, phase 1b interim analysis in four lupus nephritis patients; pharmacodynamic read-out

T1 sequence (P02745 23-245 limits assumed, chain 1 of 3): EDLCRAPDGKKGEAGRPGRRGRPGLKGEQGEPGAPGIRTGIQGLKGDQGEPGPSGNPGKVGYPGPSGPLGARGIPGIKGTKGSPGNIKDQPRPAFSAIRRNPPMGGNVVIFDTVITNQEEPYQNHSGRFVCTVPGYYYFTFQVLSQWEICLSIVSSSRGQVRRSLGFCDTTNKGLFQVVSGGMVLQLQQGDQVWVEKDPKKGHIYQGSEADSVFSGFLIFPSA
T1 sequence (P02746 28-253 limits assumed, chain 2 of 3): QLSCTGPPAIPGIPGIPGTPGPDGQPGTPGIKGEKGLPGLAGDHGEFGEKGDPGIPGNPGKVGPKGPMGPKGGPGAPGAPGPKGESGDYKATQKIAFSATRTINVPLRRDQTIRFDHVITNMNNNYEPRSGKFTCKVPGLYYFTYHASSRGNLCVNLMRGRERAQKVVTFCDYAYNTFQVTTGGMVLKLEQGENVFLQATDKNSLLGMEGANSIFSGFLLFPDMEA
T1 sequence (P02747 29-245 limits assumed, chain 3 of 3): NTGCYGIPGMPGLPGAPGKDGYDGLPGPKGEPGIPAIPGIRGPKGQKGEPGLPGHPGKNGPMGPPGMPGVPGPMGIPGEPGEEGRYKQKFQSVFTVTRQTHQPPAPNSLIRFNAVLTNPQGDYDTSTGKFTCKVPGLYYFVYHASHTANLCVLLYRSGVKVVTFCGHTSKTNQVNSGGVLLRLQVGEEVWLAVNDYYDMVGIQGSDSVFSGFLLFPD

B1: FabA (Fab)
heavy: QVQLVQSGAELKKPGASVKVSCKSSGYHFTSYWMHWVKQAPGQGLEWIGVIHPNSGSINYNEKFESRVTITVDKSTSTAYMELSSLRSEDTAVYYCAGERDSTEVLPMDYWGQGTTVTVSSASTKGPSVFPLAPSSKSTSGGTAALGCLVKDYFPEPVTVSWNSGALTSGVHTFPAVLQSSGLYSLSSVVTVPSSSLGTQTYICNVNHKPSNTKVDKKVEPKSCDKTHT
light: DVQITQSPSSLSASLGERATINCRASKSINKYLAWYQQKPGKAPKLLIYSGSTLQSGIPARFSGSGSGTDFTLTISSLEPEDFAMYYCQQHNEYPLTFGQGTKLEIKRTVAAPSVFIFPPSDEQLKSGTASVVCLLNNFYPREAKVQWKVDNALQSGNSQESVTEQDSKDSTYSLSSTLTLSKADYEKHKVYACEVTHQGLSSPVTKSFNRGEC
notes: also called anti-C1q Fab; anti-C1q antibody Fab fragment
Does B1 bind?
Result: binds
